Test results reported in the nanobody polyreactivity screen of Harvey et al. (2022).

Assay: yeast display, Sf9 membrane polyspecificity reagent, FACS + sequencing; frameworks hold sequencing errors
Method in brief: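 In a synthetic yeast display library (Saccharomyces cerevisiae BJ5465), nanobody expression was induced with galactose for 36–48 hours. FACS gates were set low and high (top ~1%) using anti-HA fluorescence for expression and streptavidin fluorescence for binding of the Sf9 membrane reagent. Each polyreactivity label is drawn from the gate of origin.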

Row | Sequence | polyreactivity (PSR sort gate)
1 | QVQLVESGGGLVQAGGSLRLSCAASGSTFGVNTMGWYRQAPGKERELVAAITSRGGSTYYADSVKGRFTISRDNAKNTVYLQMNSLKPEDTAVYYCAAEASYYRIRRYYWGQGTQVTVSS | high polyreactivity
2 | QVQLVESGGGLVQAGGSLRLSCAASGSTFGVYAMGWYRQAPGKERELVAAINARGTRTRYADSVKGRFTISRDNAKNTVYLQMTSMKPEDTAVYYCAAVWYGYYSIDTDGYWGQGSQVTVSS | high polyreactivity
3 | QVQLVESGGGLVQAGGSLRLSCAASGSTFGVYAMGWYRQAPGKERELVAAISGSGAGTYYADSVKGRFTISRDNAKNTVYLQMNSLKPEDTAVYYCAAETYYSIYDYWGQGTQVTVSS | high polyreactivity
4 | QVQLVESGGGLVQAGGSLRLSCAASGSTFGVYNMGWYRQAPGQESELVAAITKSGGSTYYADSVMGLFTISRDNAKNTVYLQMNSMNPEDTAVYYCNTDYGRYLYYRFGYLGQGTQVTVSS | low polyreactivity
5 | QVQLVESGGGLVQAGGSLRLSCAASGSTFGWNTMGWYRQAPGKERELVAAISWYGDRTYYADSVKGRFTISRDNAKNTVYLQMNSLKPEDTAVYYCARQRYYGYYYWGQGTQVTVSS | high polyreactivity
6 | QVQLVESGGGLVQAGGSLRLSCAASGSTFGWYAMGLYRQAPVKERELVATISSGGSTYYADSVKGRFTISRDNAKNNVYLQMNSLKPEDTAVYYCAADYWTYEYPGYDYWGQGTQVTVSS | low polyreactivity
7 | QVQLVESGGGLVQAGGSLRLSCAASGSTFGYNAMAWYRQAPGKERELVAAISWSGGSTYYADSVKGRFTISRDNAKNTVYLQMNSLKPEDTAVYYCATPYVKWNDYWGQGTQVTVSS | low polyreactivity
8 | QVQLVESGGGLVQAGGSLRLSCAASGSTFGYNAMGWYRQAPGKEREFVAAITRRGGNTYYADSVKGRFTISRDNAKNTVYLQMNSLKPEDTAVYYCAARYLQGRYDYWGQGTQVTVSS | high polyreactivity
9 | QVQLVESGGGLVQAGGSLRLSCAASGSTFGYNAMGWYRQAPGKERELVAAISSSGSSTSYADSVKGRFTISRDNAQNTVYLQMNSLKPEDTAVYYCAARWTRQRYRTSYYSWGQGTEVTVSS | high polyreactivity
10 | QVQLVESGGGLVQAGGSLRLSCAASGSTFGYYAMGWYRQAPGKEREFVAAITSDGSSTYYADSVKGRFTISRDNAKNTVYLQMNSMKREDTAVYYCAADTFTYGGYKFYIFYWGQGTQVTVSS | high polyreactivity
11 | QVQLVESGGGLVQAGGSLRLSCAASGSTFGYYAMGWYRQAPGKERELVAAINVSGGRTYYADSVKGRFTISRDNAKNTVYLQMNSLKPEDTAVYYCAASLYSYRSPYTFYYWGQGTQVTVSS | high polyreactivity
12 | QVQLVESGGGLVQAGGSLRLSCAASGSTFGYYAMGWYRQAPGKERELVAAISGSGTSTYYADSVKGRFTISRDNAKNTVYLQMNSLKPEDTAVYYCATRYRYTGCGYWGQGSQVTVSS | low polyreactivity
13 | QVQLVESGGGLVQAGGSLRLSCAASGSTFGYYAMGWYRQAPGKERELVAAISRSGTRTYYADSVKGRFTISRDNAKYTVYLQMNSLKPEDTAVYYCAVKGPARGYDYWGQGTQVTVSS | high polyreactivity
14 | QVQLVESGGGLVQAGGSLRLSCAASGSTFGYYAMGWYRQAPGKERELVAAISWRGGSTYYADSVKGRFTISRDNAKNTVYLQMNSLKPEDTAVYYCAAAIFITGYGSYGYWGQGTQVTVSS | low polyreactivity
15 | QVQLVESGGGLVQAGGSLRLSCAASGSTFGYYAMGWYRQAPGKERELVAAISYIGGSTYYADSVKGRFTISRDNANNTDYLQMNSQKPEDTAVYYCAAQYVTYAYDYWGQGTQVTVSS | low polyreactivity
16 | QVQLVESGGGLVQAGGSLRLSCAASGSTFGYYAMGWYRQAPGKERELVARISGGTRTNYADSVKGRFTISRDNAKNTVYLQMNSLKPEDTAVYYCNAYYYIPFEGRGYSKMDYWGQGTQVTVSS | high polyreactivity
17 | QVQLVESGGGLVQAGGSLRLSCAASGSTFGYYAMGWYRQAPGKERELVASITSDGSTNYADSVKGRFTISRDNAKNTVYLQMNSLKPEDSSVYYCAAYVWRYWHEYDYWGQGTQVTVSS | low polyreactivity
18 | QVQLVESGGGLVQAGGSLRLSCAASGSTFGYYGMGWYRQAPGKETELVAAISTGGRTNYADSVKGRFTISRDNAKNTVYLQMNSLKPEDTAVYYCAADFLSPAYRPSWYRFDYWGLGTQVTVSS | low polyreactivity
19 | QVQLVESGGGLVQAGGSLRLSCAASGSTFGYYTMGWYRQAPGKERELVAAITWSGGSTYYADSVKGRFTISRDNAKNTVFLQMNSLKPEDTAVYYCAAEDYWTPFGYWGQGTQVTVSS | low polyreactivity
20 | QVQLVESGGGLVQAGGSLRLSCAASGSTFGYYTMGWYRQAPGKERQLVAAISWSGGSTYYADSVKGRFTISRDNAKNTVYLLMNSLKPEDTAVYYCARGSQYRLWRTPHYYWGQGTQVTVSS | high polyreactivity
21 | QVQLVESGGGLVQAGGSLRLSCAASGSTFGYYTMGWYRQEPGKERELVAAITWSGGSTYFEDSVKGRFTISRDNAKNTVYLQMNSLKPEDTAVYYCAADYYWTPFGYWGQGTLVTVSS | low polyreactivity
22 | QVQLVESGGGLVQAGGSLRLSCAASGSTFGYYVMGWSRQAPGKERELVAAISWGGGSTYYADSVKGRFTISRDNAQNTVYLQMNSLNPEDTAVYYCNLRDQWWGYDYWGQGTQVTVSS | low polyreactivity

Row | Sequence | polyreactivity (PSR sort gate)
23 | QVQLVESGGGLVQAGGSLRLSCAASGSTFHGNAMGWYRQAPGKERELVAAISRSGGSTYYADSVKGRFTISRDNAKNTVYLQMNSLKPEDTAVYYCAAETVYKWWYDYYYWGQGTQVTVSS | high polyreactivity
24 | QVQLVESGGGLVQAGGSLRLSCAASGSTFHLYAMGWNRQAPGKERQFVAAIRGRGGNTYADSVKGRFTISRDNAKNTVYLQMNSLKPEDTAVYYCAAPLLRDLRSPYSYNYWGQGSQVTVSS | low polyreactivity
25 | QVQLVESGGGLVQAGGSLRLSCAASGSTFHLYAMGWYRQAPGKEREIVAAIRGRGGNTYADSVKGRFTISRDNAKNTVYLQMNSLKPEDTAVYYCAAPLLRDLRSPYSYNYWGQGTQVTVSS | low polyreactivity
26 | QVQLVESGGGLVQAGGSLRLSCAASGSTFHLYAMGWYRQAPGKERELVASITWSGGRTYYADSVKGRFTISRDYAKNTVYLHMNSLKPEDTAVYYCAAGDVNWSYSLLYTVVLYDSWGQGTQVTVSS | high polyreactivity
27 | QVQLVESGGGLVQAGGSLRLSCAASGSTFHRNAMGWSRQAPGKERELVAAISFSGGRTYYADSVKGRFTISRDNAKNTVNLQMNSLKPEDTAVYYCAAVTASPGSYPDDYWGQGTQVTVSS | low polyreactivity
28 | QVQLVESGGGLVQAGGSLRLSCAASGSTFHRYAMGWSRQAPGKERELVATINLNTGSTYADSVKGRFTISRDNAKNTVYVQMNSLKPEDTAVYYCAAYGRWPFTWYNYWGQGTQVTVSS | low polyreactivity
29 | QVQLVESGGGLVQAGGSLRLSCAASGSTFHRYAMGWYRQAPGKERELVATITSRGGITYYADSVKGRFTISRDNSKNTVYLQMNSLNPEDTALYYCNTEDGTTPQYGYDQGMYYWGQGTQVTVSS | low polyreactivity
30 | QVQLVESGGGLVQAGGSLRLSCAASGSTFHTYVMGWYRQAPGKERELVASISSGGSTYYADSVKGRFTISRDNAKNTVSLQMNSLKPEDTAVYYCAAGYPYYWHFDYWGQGSQVTVSS | low polyreactivity
31 | QVQLVESGGGLVQAGGSLRLSCAASGSTFHWYDMGWYRQAPGKERELVAGINTSGDGTYYADSVKGRFTISRDNAKNTVYLQMNSLKPEDTAVYYCAAEYYTYWGYEDDYWGQGTQVTVSS | low polyreactivity
32 | QVQLVESGGGLVQAGGSLRLSCAASGSTFHYYAMGWYRQAPGKERELVAAINSGARTYYADSVKGRFTISRDNAKNTVYLQMNSLKPEDTAVYYCAKDYTYSFGRSLDYWGQGTQVTVSS | low polyreactivity
33 | QVQLVESGGGLVQAGGSLRLSCAASGSTFHYYAMGWYRQEPGKERELVAAISGSGSSTYYADSVKGRFTISRDNAKNTVYLQMNSLKPEDTAVYYCNARGHYPRARFGYKSGSDRYWGQGTQVTVSS | high polyreactivity
34 | QVQLVESGGGLVQAGGSLRLSCAASGSTFIDYAMGWYRQAPGKERELVASITWSGGSTYYADSVKGRFTISRDNAKNTVYLQMNSLKPEDTAVYYCNADVNVGLEVRIVYEYDYWGQGTQVTVSS | low polyreactivity
35 | QVQLVESGGGLVQAGGSLRLSCAASGSTFIGYDMGWFRQAPGTERELVAAISYSDGTYYADSVKGRFTISRDNAKNTVYLQMNSLKPEDTAVYYCAADSLYYRYDYWGQGTQVTVSS | low polyreactivity
36 | QVQLVESGGGLVQAGGSLRLSCAASGSTFIGYDMGWYRQAPGQERELVAAISYSDGTYYADSVKGRFTISRDNAKNTVYLQMNSLKPEDTAVYYCATSYRDMGSHVGYWGQGTQLTVSS | low polyreactivity
37 | QVQLVESGGGLVQAGGSLRLSCAASGSTFILNAMGWYRQAPGKEWELVAAISRSGGNTYYADSVKGRFTISRDIAKNTVYLQMNSLKPEDTAVYYCAATRRSHYYYWGQGTQVTVSS | high polyreactivity
38 | QVQLVESGGGLVQAGGSLRLSCAASGSTFILNDMGWYRQAPGKERELVAAIDWGDSTTYYADSVKGRFTISRDNAKNTVYLQMNSLKPEDTAVYYCAADYAVSAFTRYPPTEYWGQGTQVTVSS | high polyreactivity
39 | QVQLVESGGGLVQAGGSLRLSCAASGSTFILNYMGWYRQAPGKERELVAAIDWGDSTTYYADSVKGRFTISRDNAKNTVYLQMNSLKPEDTAVYYCAADFAVSAFTRYPPTEYWGQGTQVTVSS | high polyreactivity
40 | QVQLVESGGGLVQAGGSLRLSCAASGSTFIPNTMGWYRQEPGKERELVAAISRRGGSTNYADSVKGRFTISRDNAKYTVYLQMNSLKPEDTAVYYCAAVSPRRYRYDYWGQGTQVTVSS | low polyreactivity
41 | QVQLVESGGGLVQAGGSLRLSCAASGSTFIRNAMGWYRQAPGKERELVAAISSSGGRTYYADSVKGRFTISRDNAKNTVYLQMNSLKPEDTAVYYCAARNARYVHTMEYWGQGTQVTVSS | high polyreactivity
42 | QVQLVESGGGLVQAGGSLRLSCAASGSTFIRNAMGWYRQAPGKERELVAVISSGGSTYYADSVKGRFTISRDNAKNTVYLQMNSLKPEDTAVYYCAAGDPQKEDYWGQGTQVTVSS | low polyreactivity
43 | QVQLVESGGGLVQAGGSLRLSCAASGSTFISNAMGWYRQAPGKEREFVAAITSSGGSTYYADSVKGRFTISRDNAKNSVYLQMNSLKPEDSAVYYCARDVWSPDYLYDYWGQGTQVTVSS | low polyreactivity
